Results reported in patent US20240117057A1 (CELLDEX THERAPEUTICS, published 2024).
Read-outs that look alike come from different tables or passages of the source. Values belong to the binder of their own block, whether it stands above or below them.

Legend:
[1] = molecular target: T1, human neonatal Fc Receptor (FcRn) (human, UniProt P55899 24-297; P61769 21-119); experiment: BLI (Octet QKe) at pH 6.0, His-tagged receptor on anti-Penta-His biosensors; pH 6.0 (to simulate endocytic conditions)
T1 construct: Histidine-tagged recombinant receptor captured on anti-Penta-His biosensors; not shown: histidine tag

[2] = molecular target: T2, recombinant human FcγRIIIa (human, UniProt P08637 17-208); experiment: BLI (Octet QKe), His-tagged receptor on anti-Penta-His biosensors, antibody in solution
T2 construct: Histidine-tagged recombinant receptor captured on anti-Penta-His biosensors; not shown: histidine tag

[3] = molecular target: T3, recombinant human FcγRIIa (human, UniProt P12318 36-218, limits assumed); experiment: as above
T3 construct: Histidine-tagged recombinant receptor captured on anti-Penta-His biosensors; not shown: histidine tag
T3 sequence (looked up): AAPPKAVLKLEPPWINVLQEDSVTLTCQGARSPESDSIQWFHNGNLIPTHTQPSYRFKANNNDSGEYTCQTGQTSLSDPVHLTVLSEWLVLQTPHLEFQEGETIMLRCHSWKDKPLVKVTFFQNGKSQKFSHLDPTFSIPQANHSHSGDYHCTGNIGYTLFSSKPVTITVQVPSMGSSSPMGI

[4] = molecular target: T4, recombinant human FcγRIIIb (human, UniProt O75015 17-200); experiment: as above
T4 construct: Histidine-tagged recombinant receptor captured on anti-Penta-His biosensors; not shown: histidine tag

[5] = molecular target: T5, recombinant human FcγRI (human, UniProt P12314 16-288); experiment: as above
T5 construct: Histidine-tagged recombinant receptor captured on anti-Penta-His biosensors; also called FcgRI; not shown: histidine tag

[6] = molecular target: T6, recombinant human FcγRIIb (human, UniProt P31994 43-217, limits assumed); experiment: Bio-layer interferometry sensorgrams, FcγRIIb on the sensor, serial dilutions of antibody
T6 construct: Histidine-tagged recombinant receptor captured on anti-Penta-His biosensors; not shown: histidine tag
T6 sequence (looked up): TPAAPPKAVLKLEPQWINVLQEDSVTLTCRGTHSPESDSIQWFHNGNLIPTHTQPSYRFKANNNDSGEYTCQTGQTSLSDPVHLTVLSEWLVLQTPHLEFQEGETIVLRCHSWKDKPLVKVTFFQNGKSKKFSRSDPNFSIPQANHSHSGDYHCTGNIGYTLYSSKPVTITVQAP

[7] = molecular target: T4, recombinant human FcγRIIIb; experiment: Bio-layer interferometry (Octet QKe), His-tagged FcγRIIIb captured on anti-Penta-His biosensors; printed as Kdis; range 500-62.5 nM; fit R2 0.9723
Protocol: (§1) Binding to recombinant human Fc receptors was measured by bio-layer interferometry using an Octet® QKe instrument. […] Curve fitting was performed using the instrument's analysis software. Binding to FcRn was performed with association and dissociation steps at pH 6.0 as well as pH 7.2.

[8] = molecular target: T1, human neonatal Fc Receptor (FcRn); experiment: Bio-layer interferometry (Octet QKe), His-tagged FcRn captured on anti-Penta-His biosensors, association and dissociation at pH 6.0; range 500-62.5 nM; fit R2 0.9757
Protocol: as §1

[9] = molecular target: T3, recombinant human FcγRIIa; experiment: Bio-layer interferometry (Octet QKe), His-tagged FcγRIIa captured on anti-Penta-His biosensors; range 500-62.5 nM; fit R2 0.9791
Protocol: as §1

[10] = molecular target: T1, human neonatal Fc Receptor (FcRn); experiment: Bio-layer interferometry (Octet QKe), His-tagged FcRn captured on anti-Penta-His biosensors, association and dissociation at pH 6.0; printed as Kdis; range 500-62.5 nM; fit R2 0.9757
Protocol: as §1
(§2) Binding to the human neonatal Fc Receptor (FcRn) was tested at physiological pH 7.2 as well as at pH 6.0 to simulate endocytic conditions.

[11] = molecular target: T2, recombinant human FcγRIIIa; experiment: Bio-layer interferometry (Octet QKe), His-tagged FcγRIIIa captured on anti-Penta-His biosensors; range 125-15.6 nM; fit R2 0.9895
Protocol: as §1

[12] = molecular target: T3, recombinant human FcγRIIa; experiment: Bio-layer interferometry (Octet QKe), His-tagged FcγRIIa captured on anti-Penta-His biosensors; printed as Kdis; range 500-62.5 nM; fit R2 0.9791
Protocol: as §1

[13] = molecular target: T4, recombinant human FcγRIIIb; experiment: Bio-layer interferometry (Octet QKe), His-tagged FcγRIIIb captured on anti-Penta-His biosensors; range 500-62.5 nM; fit R2 0.9723
Protocol: as §1

[14] = molecular target: T2, recombinant human FcγRIIIa; experiment: Bio-layer interferometry (Octet QKe), His-tagged FcγRIIIa captured on anti-Penta-His biosensors; printed as Kdis; range 125-15.6 nM; fit R2 0.9895
Protocol: as §1

[15] = molecular target: T5, recombinant human FcγRI; experiment: Bio-layer interferometry (Octet QKe), His-tagged FcγRI captured on anti-Penta-His biosensors; range 62.5-7.8 nM; fit R2 0.9955
Protocol: (§3) Binding to recombinant human Fc receptors was measured by bio-layer interferometry using an Octet® QKe instrument. […] Curve fitting was performed using the instrument's analysis software.

[16] = molecular target: T5, recombinant human FcγRI; experiment: Bio-layer interferometry (Octet QKe), His-tagged FcγRI captured on anti-Penta-His biosensors; printed as Kdis; range 62.5-7.8 nM; fit R2 0.9955
Protocol: as §1

[17] = molecular target: human KIT (human, UniProt P10721 26-976); experiment: cell-based or functional assay
[18] = molecular target: T1, human neonatal Fc Receptor (FcRn); experiment: Bio-layer interferometry (Octet QKe), His-tagged FcRn captured on anti-Penta-His biosensors, association and dissociation at pH 7.2; printed as Kdis; range 500-15.6 nM; fit R2 0.9876
Protocol: as §1, §2

[19] = molecular target: T1, human neonatal Fc Receptor (FcRn); experiment: Bio-layer interferometry (Octet QKe), His-tagged FcRn captured on anti-Penta-His biosensors, association and dissociation at pH 6.0; printed as Kdis; range 31.25-1.9 nM; fit R2 0.9869
Protocol: as §1

[20] = molecular target: T6, recombinant human FcγRIIb; experiment: Bio-layer interferometry sensorgrams, FcγRIIb on the sensor, serial dilutions of antibody; remark: listed apart in the source
Protocol: as §3

[21] = molecular target: T1, human neonatal Fc Receptor (FcRn); experiment: BLI (Octet QKe) at pH 7.2, His-tagged receptor on anti-Penta-His biosensors
Protocol: as §1, §2

[22] = molecular target: T1, human neonatal Fc Receptor (FcRn); experiment: BLI (Octet QKe) at pH 6.0, His-tagged receptor on anti-Penta-His biosensors
Protocol: as §1, §2

[23] = molecular target: T5, recombinant human FcγRI; experiment: Bio-layer interferometry (Octet QKe), His-tagged FcγRI captured on anti-Penta-His biosensors
Protocol: as §1

[24] = molecular target: T2, recombinant human FcγRIIIa; experiment: Bio-layer interferometry sensorgrams, FcγRIIIa on the sensor, serial dilutions of antibody
Protocol: as §3

[25] = molecular target: T3, recombinant human FcγRIIa; experiment: Bio-layer interferometry (Octet QKe), His-tagged FcγRIIa captured on anti-Penta-His biosensors
Protocol: as §3

[26] = molecular target: T4, recombinant human FcγRIIIb; experiment: Bio-layer interferometry sensorgrams, FcγRIIIb on the sensor, serial dilutions of antibody
Protocol: as §1

[27] = molecular target: T1, human neonatal Fc Receptor (FcRn); experiment: Bio-layer interferometry (Octet QKe), His-tagged FcRn captured on anti-Penta-His biosensors, association and dissociation at pH 7.2; range 500-15.6 nM; fit R2 0.9876
Protocol: as §1

[28] = molecular target: T1, human neonatal Fc Receptor (FcRn); experiment: Bio-layer interferometry (Octet QKe), His-tagged FcRn captured on anti-Penta-His biosensors, association and dissociation at pH 6.0; range 31.25-1.9 nM; fit R2 0.9869
Protocol: as §1, §2

T4 sequence (O75015 17-200 limits assumed): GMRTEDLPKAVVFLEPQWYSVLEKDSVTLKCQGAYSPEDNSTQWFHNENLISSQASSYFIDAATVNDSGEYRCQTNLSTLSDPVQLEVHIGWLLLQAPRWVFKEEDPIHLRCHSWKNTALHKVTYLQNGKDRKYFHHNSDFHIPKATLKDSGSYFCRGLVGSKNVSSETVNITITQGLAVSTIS
T5 sequence (P12314 16-288 limits assumed): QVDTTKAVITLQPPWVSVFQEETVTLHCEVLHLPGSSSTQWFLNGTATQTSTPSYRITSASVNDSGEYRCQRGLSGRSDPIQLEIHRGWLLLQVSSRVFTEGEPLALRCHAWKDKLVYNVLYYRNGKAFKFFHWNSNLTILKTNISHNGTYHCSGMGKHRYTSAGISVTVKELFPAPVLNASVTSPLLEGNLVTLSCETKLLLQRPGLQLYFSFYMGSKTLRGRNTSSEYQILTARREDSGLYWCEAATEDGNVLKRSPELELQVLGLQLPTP
T2 sequence (P08637 17-208 limits assumed): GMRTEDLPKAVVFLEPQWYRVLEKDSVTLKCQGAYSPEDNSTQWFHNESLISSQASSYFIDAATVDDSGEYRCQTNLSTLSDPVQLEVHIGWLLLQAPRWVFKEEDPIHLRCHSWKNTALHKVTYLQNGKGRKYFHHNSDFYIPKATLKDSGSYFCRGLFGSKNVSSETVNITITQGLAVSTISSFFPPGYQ
Sequence of human KIT (P10721 other isoform, or with tags, fused parts or gaps limits assumed): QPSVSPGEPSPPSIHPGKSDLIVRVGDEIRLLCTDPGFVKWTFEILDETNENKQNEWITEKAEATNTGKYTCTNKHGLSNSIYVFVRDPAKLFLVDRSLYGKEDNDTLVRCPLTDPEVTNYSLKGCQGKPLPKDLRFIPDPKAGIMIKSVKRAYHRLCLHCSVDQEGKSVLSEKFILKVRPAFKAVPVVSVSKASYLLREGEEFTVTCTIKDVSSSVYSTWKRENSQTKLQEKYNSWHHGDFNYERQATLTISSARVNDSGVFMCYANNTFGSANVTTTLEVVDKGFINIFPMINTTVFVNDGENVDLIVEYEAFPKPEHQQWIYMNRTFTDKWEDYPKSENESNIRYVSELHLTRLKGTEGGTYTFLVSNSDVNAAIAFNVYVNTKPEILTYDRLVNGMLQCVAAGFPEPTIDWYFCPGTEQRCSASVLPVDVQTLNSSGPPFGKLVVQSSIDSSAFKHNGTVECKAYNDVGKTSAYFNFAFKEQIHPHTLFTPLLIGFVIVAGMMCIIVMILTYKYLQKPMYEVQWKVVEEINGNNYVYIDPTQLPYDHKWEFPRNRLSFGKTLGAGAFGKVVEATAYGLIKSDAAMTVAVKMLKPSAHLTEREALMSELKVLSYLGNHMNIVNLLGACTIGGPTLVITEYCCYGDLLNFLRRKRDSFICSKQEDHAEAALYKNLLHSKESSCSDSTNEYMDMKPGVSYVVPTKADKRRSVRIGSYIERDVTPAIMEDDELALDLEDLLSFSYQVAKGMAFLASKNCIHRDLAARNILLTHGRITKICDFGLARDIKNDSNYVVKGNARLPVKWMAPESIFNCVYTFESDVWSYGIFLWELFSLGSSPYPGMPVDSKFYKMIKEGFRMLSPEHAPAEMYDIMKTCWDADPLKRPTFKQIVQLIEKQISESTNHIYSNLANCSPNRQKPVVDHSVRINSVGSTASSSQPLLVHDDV

Kd [1]: 211 nM
Kd [2]: 127 nM
Kd [3]: 391 nM
Kd [4]: 816 nM
Kd [5]: 3.39 nM
koff [7]: 0.124 s⁻¹
kon [8]: 141000 M⁻¹ s⁻¹
kon [9]: 358000 M⁻¹ s⁻¹
koff [10]: 0.0296 s⁻¹
kon [11]: 128000 M⁻¹ s⁻¹
koff [12]: 0.14 s⁻¹
kon [13]: 152000 M⁻¹ s⁻¹
koff [14]: 0.0162 s⁻¹
kon [15]: 522000 M⁻¹ s⁻¹
koff [16]: 0.00177 s⁻¹
IC50, inhibition of SCF-dependent M-07e cell proliferation [17]: 1.12 nM
B1: mAbc (antibody, human IgG1, kappa)
heavy: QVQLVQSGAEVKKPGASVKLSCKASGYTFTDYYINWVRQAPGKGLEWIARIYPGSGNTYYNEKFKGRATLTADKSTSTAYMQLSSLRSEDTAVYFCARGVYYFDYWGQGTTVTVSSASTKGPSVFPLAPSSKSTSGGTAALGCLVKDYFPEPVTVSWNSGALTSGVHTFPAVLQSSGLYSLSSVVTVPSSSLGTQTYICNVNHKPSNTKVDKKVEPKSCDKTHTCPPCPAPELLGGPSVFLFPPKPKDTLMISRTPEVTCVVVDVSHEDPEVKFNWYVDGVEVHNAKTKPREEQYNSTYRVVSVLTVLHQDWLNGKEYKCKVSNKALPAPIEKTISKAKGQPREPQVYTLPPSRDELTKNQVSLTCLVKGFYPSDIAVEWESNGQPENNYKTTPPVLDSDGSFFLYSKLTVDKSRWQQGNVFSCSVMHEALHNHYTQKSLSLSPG
light: DIVMTQSPSSLSASVGDRVTITCKASQNVRTNVAWYQQKPGKAPKALIYSASYRYSGVPDRFTGSGSGTDFTLTISSLQPEDFADYFCQQYNSYPRTFGGGTKVEIKRTVAAPSVFIFPPSDEQLKSGTASVVCLLNNFYPREAKVQWKVDNALQSGNSQESVTEQDSKDSTYSLSSTLTLSKADYEKHKVYACEVTHQGLSSPVTKSFNRGEC
notes: Positions are EU numbers; also called corresponding antibody with a wild-type (unmutated) IgG1 Fc domain; copies: 2 + 2
binding result [6]: no binding (tested: 500 nM (range given in FIG. 7))

koff [18]: 0.0807 s⁻¹
koff [19]: 0.000765 s⁻¹
Kd [21]: 77.1 nM
Kd [22]: 0.38 nM
binding result [23]: no binding (tested: 500 nM)
binding result [25]: no binding (tested: 500 nM)
kon [27]: 1.05e+06 M⁻¹ s⁻¹
Kd [28]: 0.383 nM
kon [28]: 2e+06 M⁻¹ s⁻¹
IC50, inhibition of SCF-dependent M-07e cell proliferation [17]: 1.11 nM
B2: mAb1 (antibody, human IgG1, kappa)
heavy: QVQLVQSGAEVKKPGASVKLSCKASGYTFTDYYINWVRQAPGKGLEWIARIYPGSGNTYYNEKFKGRATLTADKSTSTAYMQLSSLRSEDTAVYFCARGVYYFDYWGQGTTVTVSSASTKGPSVFPLAPSSKSTSGGTAALGCLVKDYFPEPVTVSWNSGALTSGVHTFPAVLQSSGLYSLSSVVTVPSSSLGTQTYICNVNHKPSNTKVDKKVEPKSCDKTHTCPPCPAPEAQGGPSVFLFPPKPKDTLYITREPEVTCVVVDVSHEDPEVKFNWYVDGVEVHNAKTKPREEQYNSTYRVVSVLTVLHQDWLNGKEYKCQVSNKALPAPIEKTISKAKGQPREPQVYTLPPSRDELTKNQVSLTCLVKGFYPSDIAVEWESNGQPENNYKTTPPVLDSDGSFFLYSKLTVDKSRWQQGNVFSCSVMHEALHNHYTQKSLSLSPG
light: DIVMTQSPSSLSASVGDRVTITCKASQNVRTNVAWYQQKPGKAPKALIYSASYRYSGVPDRFTGSGSGTDFTLTISSLQPEDFADYFCQQYNSYPRTFGGGTKVEIKRTVAAPSVFIFPPSDEQLKSGTASVVCLLNNFYPREAKVQWKVDNALQSGNSQESVTEQDSKDSTYSLSSTLTLSKADYEKHKVYACEVTHQGLSSPVTKSFNRGEC
notes: Humanized anti-human KIT IgG1 with mutated Fc, expressed in CHO cells; also called antibody mAb 1; anti-KIT antibody; copies: 2 + 2
binding result [20]: no binding (tested: 500 nM (range given in FIG. 7))
binding result [24]: no binding (tested: 500 nM (range given in FIG. 7))
binding result [26]: no binding (tested: 500 nM (range given in FIG. 7))
